The assay has as its target β2B (UniProt Q08289). In words: flow-cytometric FRET 2-hybrid.

Sequence of Rad (O88667 whole entry, looked up, change not shown): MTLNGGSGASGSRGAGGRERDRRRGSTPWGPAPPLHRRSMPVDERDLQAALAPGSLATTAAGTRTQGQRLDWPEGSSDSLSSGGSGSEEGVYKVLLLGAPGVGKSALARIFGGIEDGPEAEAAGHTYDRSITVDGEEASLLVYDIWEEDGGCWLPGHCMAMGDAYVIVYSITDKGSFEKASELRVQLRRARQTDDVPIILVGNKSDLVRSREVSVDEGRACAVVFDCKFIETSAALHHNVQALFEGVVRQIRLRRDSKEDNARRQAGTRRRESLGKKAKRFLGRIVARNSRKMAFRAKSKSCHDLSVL

As to “Rad (from UniProt O88667) 4-SA Rad, PKAcat co-expressed”, under “reference: 4-SA Rad, no PKAcat”, the “other: Kd,EFF (FRET 2-hybrid, relative)” value is on record as “same; reference 4346± 197”.

Consider “Rad (from UniProt O88667) 4-SA Rad with PKAcat”, for which the “other: Kd,EFF (FRET 2-hybrid, relative)” value (reference: WT Rad with PKAcat, sites S25,S38,S272,S300) is “stronger; reference 145231 ± 3084”.

In the case of “Rad (from UniProt O88667) WT Rad, PKAcat co-expressed”, for the setting “reference: WT Rad, no PKAcat, sites S25,S38,S272,S300”, the “other: Kd,EFF (FRET 2-hybrid, relative)” value is “weaker; reference 7957 ± 418”.

(Values after PMC7018383.)
